Source: article PMC7723274
No end group written: not given here.

Key:
[1] = target: hexon HVR1/C4 vertex chimera virion (C4 chimera with hexon HVR1 replaced by that of HAdV-64) (human adenovirus 5 (HAdV-5) | human adenovirus 64 (HAdV-64)) (UniProt P04133)
[2] = target: hexon HVR1 chimera virion (HAdV-5 with hexon HVR1 replaced by that of HAdV-64) (human adenovirus 5 (HAdV-5) | human adenovirus 64 (HAdV-64)) (UniProt P04133)
[3] = target: C4 vertex chimera virion (HAdV-5 with penton base residues 288 to 571 from HAdV-64 and the DTET to GYAR mutation in fiber) (human adenovirus 5 (HAdV-5) | human adenovirus 64 (HAdV-64)) (UniProt P04133)
[4] = target: HAdV-5 virion (E1/E3-deleted, replication-defective HAdV-5 vector with an eGFP cassette) (human adenovirus 5 (HAdV-5)) (UniProt P04133)
[5] = target: hexon HVR1 chimera virion (HAdV-5 with hexon HVR1 replaced by that of HAdV-64) (human adenovirus 5 (HAdV-5) | human adenovirus 64 (HAdV-64)) (UniProt P04133); experiment: co-sedimentation; 2.5 μg purified virus with 20 μM HD5 in 150 mM NaCl, 20 mM Tris, 5% glycerol, 1 mM MgCl2, on ice 45 min; discontinuous Histodenz gradient, 4°C, virus band collected; SDS-PAGE, fluorescent stain; HD5 normalised to proteins V and VII and read against a standard curve
[6] = target: HAdV-64 virion (E3 deleted, replication-competent HAdV-64 virus containing a CMV-eGFP ORF, WT HAdV-64 capsid) (human adenovirus 64 (HAdV-64)); experiment: as above
[7] = target: C4 vertex chimera virion (HAdV-5 with penton base residues 288 to 571 from HAdV-64 and the DTET to GYAR mutation in fiber) (human adenovirus 5 (HAdV-5) | human adenovirus 64 (HAdV-64)) (UniProt P04133); experiment: as above
[8] = target: HAdV-5 virion (E1/E3-deleted, replication-defective HAdV-5 vector with an eGFP cassette) (human adenovirus 5 (HAdV-5)) (UniProt P04133); experiment: as above
[9] = target: hexon HVR1 chimera virion (HAdV-5 with hexon HVR1 replaced by that of HAdV-64) (human adenovirus 5 (HAdV-5) | human adenovirus 64 (HAdV-64)) (UniProt P04133); remark: listed apart in the source
[10] = target: HAdV-5 virion (E1/E3-deleted, replication-defective HAdV-5 vector with an eGFP cassette) (human adenovirus 5 (HAdV-5)) (UniProt P04133); remark: listed apart in the source
[11] = target: HAdV-64 virion (E3 deleted, replication-competent HAdV-64 virus containing a CMV-eGFP ORF, WT HAdV-64 capsid) (human adenovirus 64 (HAdV-64))

ATCYCRTGRCATRESLSGVCEISGRLYRLCCR (not fully specified; cysteine pairing not given here) [Human defensin 5]
HD5 concentration at which 50% of fiber stays capsid-associated after heating to 49.3°C, against HAdV-5 (fully associated at 20 μM HD5) (fold lower than HAdV-5) [1]: 2 | HD5 concentration at which 50% of fiber stays capsid-associated after heating to 48°C, against HAdV-5 (fully associated at 20 μM HD5) (fold higher than HAdV-5) [2]: > 2 | HD5 concentration at which 50% of fiber stays capsid-associated after heating to 49.3°C (fully associated at 20 μM HD5) [3]: 5 µM | HD5 concentration at which 50% of fiber stays capsid-associated after heating to 48°C (fully associated at 20 μM HD5) [4]: 5 µM | fold less HD5 bound per virion than to HAdV-5 (fold less than HAdV-5) [5]: 5 | fold less HD5 bound per virion than to HAdV-5 (fold less than HAdV-5) [6]: 83 | fold more HD5 bound per virion than to HAdV-5 (fold more than HAdV-5) [7]: 2.3 | stoichiometry N (molecules of HD5 per virion) [8]: 7090 | HD5 IC50 of infection on A549 cells, against HAdV-5 (fold over HAdV-5) [9]: 5 | binding of AF488-labeled virus to A549 cells after pre-incubation with 2.5, 5 and 10 μM HD5, fold change in GMF against no HD5 [10]: 1.4 to 2.1 fold | infectivity on A549 cells of virus incubated with 5 μM or 10 μM HD5 (protocol 1) [11]: 4 to 5 fold
